{"source": "paper PMC4114559", "about": "“Pigment Dispersing Factor Regulates Ecdysone Biosynthesis via Bombyx Neuropeptide G Protein Coupled Receptor-B2 in the Prothoracic Glands of Bombyx mori” (PLoS ONE, 2014)", "key": {"ERK": {"system": "ERK", "test": "p-ERK level in cultured PGs (Western blot)", "assay_type": "cell-based, Bombyx mori", "details": "15 min, immunoblotting", "procedure": "Dissected PGs were rinsed with Grace's insect culture medium (Gibco) and pre-cultured individually in 100 µl medium in 96-well plates (BD Falcon) at 25°C for 30 min. To evaluate the effect of extracellular Ca^2+ on ecdysone biosynthesis, lepidopteran saline and lepidopteran saline using NaCl as a replacement for CaCl2 were used. For the pharmacological analysis, the PG was pre-treated with the inhibitor for 15 min during the pre-culture period. Following this treatment, the PG was cultured in the desired conditions for the desired period (Ecdysone assay: 3 hours; cAMP assay: 30 min; and Protein phosphorylation assay: 15 min). […]\nDissected PGs were pre-cultured in Grace's culture medium for 30 min, then cultured with or without PDF or PTTH for 15 min. The cultured PGs were sonicated in 50 mM Tris-HCl (pH 6.8) with protease inhibitor cocktail (Complete, Roche) and phosphatase inhibitor cocktail (Wako), lysed in 1x SDS sample buffer excluding 2-mercaptoethanol (2ME) and bromophenol blue (BPB), and the protein concentration was measured using the BCA protein assay kit (Pierce). […]\nFigure 4 Signaling pathways involved in PDF-induced ecdysone biosynthesis. […] The transcript levels of nvd, nm-g, spo, phm, dib and sad were quantified with Q-PCR. […] Statistically significant differences were evaluated by Student's t-test (***P<0.001, **P<0.01). […]"}, "PGs": {"system": "PGs", "details": "cited from earlier work", "source_text": "In many cases, a single hormone has multiple functions regulating many physiological phenomena. Thus, both the regulation of receptor expression in the target tissue and the regulation of hormone release are important for the hormone to only affect the target tissue at the appropriate time. In the case of PTTH, the titer of the hormone in the hemolymph is clearly correlated with the ecdysteroid titer ... || In insects, neuropeptide hormones affect the target tissue via humoral and neuronal pathways. […] The increase in intracellular cAMP is thought to be regulated by Ca^2+ signaling in the PTTH signaling pathway, [37]. […] PDF sig ... || (+ 1 further places)"}, "[1]": {"system": "nvd, nm-g, spo, phm, dib and sad", "details": "ref [8]; cited from earlier work", "source_text": "Ecdysone is the key regulator of insect growth and development. Ecdysone is synthesized in the PGs and the biosynthesis is intricately regulated by several neuropeptides. To date, four prothoracicotropic peptides (PTTH, FXPRL-amides, insulin and orcokinins) and three prothoracicostatic peptides (PTSP, Bommo-myosuppressin and Bommo-FMRF-amides) have been identified in Bombyx mori. The participation of four cytochrome P450 (CYP) enzymes (CYP307A1, Spook (Spo); CYP306A1, Phantom (Phm); CYP302A1, Disembodied (Dib); CYP315A1, Shadow (Sad)); an oxygenase-like protein, Neverland (Nvd); and a sh ... || Because PDF increased the intracellular cAMP level in PGs, the involvement of PKA in the PDF signaling pathway was expected. […] In mammals, most of the CYP enzymes involved in steroid hormone biosynthesis are transcriptionally regulated. In PTTH- and dbcAMP-induced ecdysone biosynthesis, ecdysone biosynthesi ..."}}}
{"molecule": "PTTH: prothoracicotropic hormone, humoral pathway-mediated tropic hormone (protein, UniProt P17219 116-224, looked up, Prothoracicotropic hormone) Prothoracicotropic hormone: GNIQVENQAIPDPPCTCKYKKEIEDLGENSVPRFIETRNCNKTQQPTCRPPYICKESLYSITILKRRETKSQESLEIPNELKYRWVAESHPVSVACLCTRDYQLRYNNN", "values": [{"measurement": "level of p-ERK", "setting": "ERK", "value": "upregulated"}, {"measurement": "response of V4 PGs, ecdysone synthesis in vitro (literature)", "setting": "PGs; PGs of V4, ref [8]", "value": "capable of responding to PTTH stimulus and synthesize ecdysone in vitro"}, {"measurement": "ecdysone biosynthesis when extracellular Ca2+ is depleted (literature)", "setting": "PGs; extracellular Ca2+ depleted, ref [27], [37]", "value": "cannot stimulate ecdysone biosynthesis when extracellular Ca^2+ is depleted"}, {"measurement": "effect of a transcription inhibitor on PTTH- and dbcAMP-induced ecdysone biosynthesis (literature)", "setting": "PGs; ref [39]", "value": "ecdysone biosynthesis was suppressed by a transcription inhibitor"}, {"measurement": "transcript level of ecdysone biosynthetic enzymes (literature)", "setting": "[1]", "value": "upregulated the transcript level of some ecdysone biosynthetic enzymes"}, {"measurement": "transcript levels of spo, dib and phm (literature)", "setting": "[1]", "value": "upregulated by PTTH"}]}
